Tests used:
[1] = biological target: T1, human FUS (fused in sarcoma) protein (human, UniProt P35637 1-526); assay: immunofluorescence co-localisation in Drosophila brain neurons (anti-GstO2 / anti-FUS)
T1 construct: Human FUS was expressed in Drosophila neurons with the elav-Gal4 driver and seen as cytoplasmic aggregates; also called human wild-type FUS; FUS aggregate
T1 sequence: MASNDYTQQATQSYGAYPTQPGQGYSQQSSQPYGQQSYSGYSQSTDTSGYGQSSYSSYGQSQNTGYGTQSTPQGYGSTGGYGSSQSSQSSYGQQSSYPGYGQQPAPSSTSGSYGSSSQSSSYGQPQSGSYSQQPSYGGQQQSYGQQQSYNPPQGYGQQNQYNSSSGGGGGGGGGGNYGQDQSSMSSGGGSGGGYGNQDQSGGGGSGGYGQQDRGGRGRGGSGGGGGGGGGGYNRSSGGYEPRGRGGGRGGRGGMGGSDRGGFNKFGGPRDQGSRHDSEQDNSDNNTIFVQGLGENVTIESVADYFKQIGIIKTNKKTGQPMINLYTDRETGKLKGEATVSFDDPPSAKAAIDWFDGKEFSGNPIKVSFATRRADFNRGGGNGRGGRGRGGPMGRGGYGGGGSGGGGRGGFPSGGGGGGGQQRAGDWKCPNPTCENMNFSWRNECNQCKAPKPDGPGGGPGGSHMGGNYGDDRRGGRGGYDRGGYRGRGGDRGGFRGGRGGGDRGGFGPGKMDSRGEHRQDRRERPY

[2] = biological target: T2, human FUS (fused in sarcoma) protein
T2 chain: T1 sequence

B1: Drosophila omega class glutathione transferase 2 (GstO2) (enzyme)
chain: MALPQKHFKRGSTKPELPEDGVPRFFSMAFCPFSHRVRLMLAAKHIEHHKIYVDLIEKPEWYKDFSPLGKVPALQLTGVKDQPTLVESLIIAEYLDQQYPQTRLFPTDPLQKALDKILIERFAPVVSAIYPVLTCNPNAPKDAIPNFENALDVFEVELGKRGTPYFAGQHIGIVDYMIWPWFERFPSMKINTEQKYELDTKRFEKLLKWRDLMTQDEVVQKTALDVQLHAEFQKSKTLGNPQYDIAFKGTP
notes: also called endogenous GstO2
binding result [1]: binds
FUS glutathionylation and FUS aggregate formation (double immunofluorescence of fly brain tissue, anti-FUS / anti-GSH) [2]: GstO2 coexpression inhibits an increase in formation of a FUS aggregate, and reduces FUS glutathionylation

Reference: patent publication US20220026447A1 (SOONCHUNHYANG UNIVERSITY INDUSTRY ACADEMY COOPERATION …, published 2022)
